Experimental data published in PMC11283454.

Tested on: hATE1 WT (human)
Assay: EMSA

With tRNAArg acceptor arm the Kd was 1600 nM.
